Values of other authors in article PMC4059402 (Chembiochem : a European journal of chemical biology, 2014).

Details: with laurate

B1: wild-type CYP102A1: long-chain fatty acid monoxygenase CYP102A1 (P450BM3) from B. megaterium (protein, UniProt P14779 1-1049, looked up)
Bifunctional cytochrome …: MTIKEMPQPKTFGELKNLPLLNTDKPVQALMKIADELGEIFKFEAPGRVTRYLSSQRLIKEACDESRFDKNLSQALKFVRDFAGDGLFTSWTHEKNWKKAHNILLPSFSQQAMKGYHAMMVDIAVQLVQKWERLNADEHIEVPEDMTRLTLDTIGLCGFNYRFNSFYRDQPHPFITSMVRALDEAMNKLQRANPDDPAYDENKRQFQEDIKVMNDLVDKIIADRKASGEQSDDLLTHMLNGKDPETGEPLDDENIRYQIITFLIAGHETTSGLLSFALYFLVKNPHVLQKAAEEAARVLVDPVPSYKQVKQLKYVGMVLNEALRLWPTAPAFSLYAKEDTVLGGEYPLEKGDELMVLIPQLHRDKTIWGDDVEEFRPERFENPSAIPQHAFKPFGNGQRACIGQQFALHEATLVLGMMLKHFDFEDHTNYELDIKETLTLKPEGFVVKAKSKKIPLGGIPSPSTEQSAKKVRKKAENAHNTPLLVLYGSNMGTAEGTARDLADIAMSKGFAPQVATLDSHAGNLPREGAVLIVTASYNGHPPDNAKQFVDWLDQASADEVKGVRYSVFGCGDKNWATTYQKVPAFIDETLAAKGAENIADRGEADASDDFEGTYEEWREHMWSDVAAYFNLDIENSEDNKSTLSLQFVDSAADMPLAKMHGAFSTNVVASKELQQPGSARSTRHLEIELPKEASYQEGDHLGVIPRNYEGIVNRVTARFGLDASQQIRLEAEEEKLAHLPLAKTVSVEELLQYVELQDPVTRTQLRAMAAKTVCPPHKVELEALLEKQAYKEQVLAKRLTMLELLEKYPACEMKFSEFIALLPSIRPRYYSISSSPRVDEKQASITVSVVSGEAWSGYGEYKGIASNYLAELQEGDTITCFISTPQSEFTLPKDPETPLIMVGPGTGVAPFRGFVQARKQLKEQGQSLGEAHLYFGCRSPHEDYLYQEELENAQSEGIITLHTAFSRMPNQPKTYVQHVMEQDGKKLIELLDQGAHFYICGDGSQMAPAVEATLMKSYADVHQVSEADARLWLQQLEEKGRYAKDVWAG
For B1, the catalytic rate is given as 1,680 min^−1.
